Assay results from patent publication US20100040600A1, “Agents for Promoting the Growth of Hematopoietic Stem Cells” (CHUGAI SEIYAKU KABUSHIKI KAISHA, priority 2006, published 2010).

Assays:
[1] = tested on: human cord blood cells (CD34-positive cells); conditions: with or without TPO treatment; single administration; cited from earlier work
mouse bone marrow = conditions: TPO administered to TPO-knockout mice; cited from earlier work
[2] = tested on: human cord blood-derived CD34-positive cells; assay: Engraftment number of different human blood cell lineages in bone marrow of mice transplanted with human cord blood-derived hematopoietic stem cells (Example 1); assay type: in vivo, NOD.CB17-Prkdc<scid>/J mice
Source text: Engraftment of transplanted hematopoietic stem cells in the bone marrow is required in hematopoietic stem cell transplantation. The present invention provides agents which comprise an agonist for the TPO receptor (c-mpl) as an active ingredient for enhancing the engraftment of transplanted CD34-positive hematopoietic cells in the bone marrow. The engraftment of transplanted CD34-positive hematopoietic cells (CD34-positive hematopoietic stem cells and CD34-positive hematopoietic precursor cells) in the bone marrow can be promoted by administering the agents of the present invention. The presence or absence, or the degree of engraftment of transplanted CD34-positive hematopoietic cells in the bone marrow (the engraftment rate of transplanted CD34-positive hematopoietic cells in the bone marrow) can be assessed, for example, by determining the absolute number of human CD34-positive hematopoietic cells in the bone marrow of NOD/SCID mice to which human hematopoietic cells are transplanted. Human cells can be identified among the mouse bone marrow cells by using a fluorescent-labeled, human CD34-specific antibody for detection. Specifically, the engraftment rate of transplanted CD34-positive hematopoietic cells in the bone marrow can be determined by the following procedures. First, NOD.CB17-Prkdc/J mice, to which human cord blood-derived CD34-positive cells have been transplanted, are euthanized three weeks after transplantation. The right and left femurs are collected, and then their epiphyseal portions are removed by scissors. Bone marrow cells are flushed out using a 26G-needle syringe and collected. After washing with IMDM containing 2% FBS, 5 ml of erythrocyte lysis solution is added, and the mixture is allowed to stand for five minutes. The mixture is centrifuged and supernatant is removed. Then, the precipitate is suspended in 2 ml of IMDM containing 2% FBS. The suspension is filtered through a 70-μm membrane to prepare a bone marrow cell suspension (2 ml/two femurs for each mouse). The cell suspension is aliquoted into 100-μl samples, and the cells are stained for 15 minutes with a fluorescent-labeled, human CD34-specific antibody and PI (final concentration: 2 μg/ml). After washing, 50 μl of Flow-Count fluorescent particles are added, and the engraftment number of human CD34-positive cells is determined using the EPICS XL cell analyzer. The determination may be performed, for example, according to Application Note 5: “Determination of the absolute number of cells using Flow-Count” (Beckman Coulter, Inc.). Likewise, the absolute number of different human blood cell lineages in the bone marrow can be determined using a variety of detection antibodies. The absolute number of human cells contained in the two femurs is represented by the following formula:
Absolute number of human cells=determined value (cells/μl)×1/2(Flow-Count amount added (50)/sample amount added (100))×2000 (2 ml/two femurs/mouse)
Mice used were acclimatized six-week-old male NOD.CB17-Prkdc/J. After systemic irradiation with 3.0 Gy of X-ray, an anti-asialo-GM1 antibody was intraperitoneally administered to the mice once every ten days from the day of irradiation. 5×10^4 human cord blood-derived CD34-positive cells were transplanted to each mouse at the caudal vein one day after irradiation. From the day after transplantation, the sc(Fv)2 antibody of SEQ ID NO: 73 was administered every day for ten consecutive days, and after that, administration was conducted for five days followed by two days of break. The doses were: 0.25 mg/5 ml/kg in the morning, and 2 mg/5 ml/kg in the evening. The antibody was subcutaneously administered at eight-hour intervals, twice a day for three weeks in total (n=10). 20 mmol/l citric acid buffer containing 0.02% Tween 80 was administered as a vehicle in the same way as the sc(Fv)2 antibody of SEQ ID NO: 73. The bone marrow was collected after three weeks transplantation, and FACS analysis was performed using EPIX XL. […]

human CFU-Meg colonies = assay: Number of human CFU-Meg colonies in bone marrow of mice transplanted with human cord blood-derived hematopoietic stem cells (Example 2); assay type: in vivo, NOD.CB17-Prkdc<scid>/J mice; conditions: vs vehicle-administered group; s.c. 0.25 + 2 mg/kg per day, three weeks; bone marrow cells cultured 13 days in MegaCult-C; FIG. 2
Protocol: Mice used were acclimatized six-week-old male NOD.CB17-Prkdc/J. After systemic irradiation with 3.0 Gy of X-ray, an anti-asialo-GM1 antibody was intraperitoneally administered to the mice once every ten days from the day of irradiation. 5×10^4 human cord blood-derived CD34-positive cells were transplanted to each mouse at the caudal vein one day after irradiation. From the day after transplantation, the sc(Fv)2 antibody of SEQ ID NO: 73 was administered every day for ten consecutive days, and then after that, administration was conducted for five days followed by two days of break. The antibody was subcutaneously administered at 0.25 mg/5 ml/kg in the morning and 2 mg/5 ml/kg in the evening, at eight-hour intervals, twice a day for three weeks in total (n=10). 20 mmol/l citric acid buffer containing 0.02% Tween 80 was administered as a vehicle in the same way as the sc(Fv)2 antibody of SEQ ID NO: 73. Bone marrow cells were collected after three weeks transplantation. Bone marrow cells contained in the mouse femurs were cultured with the sc(Fv)2 antibody of SEQ ID NO: 73 for 13 days using MegaCult-C (StemCell Technologies). The number of human CFU-Meg colonies was determined by counting CD41-positive colonies containing 50 or more cells under a light microscope.

[3] = tested on: human cord blood-derived CD34-positive cells; assay: Dose-dependent effect on engraftment number of different human blood cell lineages in bone marrow of transplanted mice (Example 3); assay type: in vivo, NOD.CB17-Prkdc<scid>/J mice; conditions: high, medium, low dose s.c. for ten days, FIG. 3
Protocol: Mice used were acclimatized six-week-old male NOD.CB17-Prkdc/J. After systemic irradiation with 3.0 Gy of X-ray, an anti-asialo-GM1 antibody was intraperitoneally administered to the mice on the day of irradiation and eight days after irradiation. 5×10^4 human cord blood-derived CD34-positive cells were transplanted to each mouse at the caudal vein the day after irradiation. The sc(Fv)2 antibody of SEQ ID NO: 73 was administered every day for ten consecutive days from the day after the irradiation, according to the following three dosages (subcutaneous administration; n=9 for each group).
High-dose group (0.25 mg/kg in the morning, an eight-hour interval, and 2 mg/kg in the evening, per day)
Medium-dose group (0.05 mg/kg in the morning, an eight-hour interval, and 0.2 mg/kg in the evening, per day)
Low-dose group (0.01 mg/kg in the morning, an eight-hour interval, and 0.02 mg/kg in the evening, per day)
The dose was adjusted so that the minimum drug concentration in peripheral blood during the administration period is 50 ng/ml, 10 ng/ml, or 2 ng/ml in the high-, medium-, or low-dose group, respectively.
20 mmol/l sodium citrate/150 mM NaCl buffer (pH 6.5) containing 0.02% Tween 80 was administered as a vehicle in the same way as the sc(Fv)2 antibody of SEQ ID NO: 73. Bone marrow cells were collected after two weeks transplantation, and FACS analysis was performed. The absolute number of human cells was determined using Flow-Count (Beckman).

[4] = summary statement of the inventors' findings
[5] = vs vehicle group, s.c. 0.25 + 2 mg/kg per day, three weeks, FIG. 1
[6] = two weeks after transplantation

TPO: cytokine that promotes growth and differentiation of megakaryocytic lineage cells; ligand for c-mpl
frequencies of CD34 positive cells [1]: did not differ significantly
mouse bone marrow transplantation efficiency (mouse bone marrow): increased

B1: VB22B sc(Fv)2: agonistic minibody against the TPO receptor; amino acid sequence of SEQ ID NO: 14 (protein, listed as Mus musculus)
chain: MEWPLIFLFLLSGTAGVHSQVQLQQSGPELVKPGASVKISCKASGYAFTNSWMNWVKQRPGKGLEWIGRIYPGDGETIYNGKFRVKATLTADKSSSTAYMDISSLTSEDSAVYFCARGYDDYSFAYWGQGTLVTVSAGGGGSGGGGSGGGGSDIVMTQAAPSIPVTPGESVSISCRSSKSLLHSNGNTYLYWFLQRPGQSPQLLIYRMSNLASGVPDRFSGSGSGTAFTLRISRVEAEDVGVYYCMQHIEYPFTFGSGTKLEIKGGGGSGGGGSGGGGSQVQLQQSGPELVKPGASVKISCKASGYAFTNSWMNWVKQRPGKGLEWIGRIYPGDGETIYNGKFRVKATLTADKSSSTAYMDISSLTSEDSAVYFCARGYDDYSFAYWGQGTLVTVSAGGGGSGGGGSGGGGSDIVMTQAAPSIPVTPGESVSISCRSSKSLLHSNGNTYLYWFLQRPGQSPQLLIYRMSNLASGVPDRFSGSGSGTAFTLRISRVEAEDVGVYYCMQHIEYPFTFGSGTKLEIK
engraftment of transplanted human cord blood-derived hematopoietic stem cells (CD34-positive hematopoietic cells) in the bone marrow [2, 4]: enhanced the engraftment
growth of multilineage blood precursor cells [2, 4]: induced significant growth
human megakaryocyte-specific differentiation (increase of megakaryocytic cells) [2, 4]: induced human megakaryocyte-specific differentiation

B2: sc(Fv)2 antibody of SEQ ID NO: 73: humanized sc(Fv)2 antibody comprising the amino acid sequence of SEQ ID NO: 73; c-mpl agonist (protein, listed as Homo sapiens)
chain: MDWTWRFLFVVAAATGVQSQVQLVQSGPEVKKPGASVKVSCKASGYTFTNSWMNWVRQRPGKGLEWIGRIYPGDGETIYNGKFRVRVTITADESTSTAYMQLSSLRSEDTAVYYCARGYDDYSFAYWGQGTTVTVSSGGGGSGGGGSGGGGSDIVMTQSPLSLPVTPGEPASISCRSSKSLLHSNGNTYLYWFLQKPGQSPQLLIYRMSNLASGVPDRFSGSGSGTDFTLKISRVEAEDVGVYYCMQHIEYPFTFGQGTKLEIKGGGGSGGGGSGGGGSQVQLVQSGPEVKKPGASVKVSCKASGYTFTNSWMNWVRQRPGKGLEWIGRIYPGDGETIYNGKFRVRVTITADESTSTAYMQLSSLRSEDTAVYYCARGYDDYSFAYWGQGTTVTVSSGGGGSGGGGSGGGGSDIVMTQSPLSLPVTPGEPASISCRSSKSLLHSNGNTYLYWFLQKPGQSPQLLIYRMSNLASGVPDRFSGSGSGTDFTLKISRVEAEDVGVYYCMQHIEYPFTFGQGTKLEIK
number of human CD34-positive cells in right and left femurs ([2]; vs vehicle group, s.c. 0.25 mg/kg morning + 2 mg/kg evening, three weeks, bone marrow three weeks after transplantation, FIG. 1): statistically significantly increased
number of CD19-positive cells in right and left femurs [2, 5]: statistically significantly increased
number of CD33-positive cells in right and left femurs [2, 5]: statistically significantly increased
number of CD41-positive cells in right and left femurs [2, 5]: statistically significantly increased
number of CD45-positive cells in right and left femurs [2, 5]: statistically significantly increased
number of CFU-Meg colonies in the bone marrow (human CFU-Meg colonies): statistically significantly increased
number of CD34-positive cells in right and left femurs ([3]; bone marrow two weeks after transplantation): increase in a dose-dependent manner
number of CD19-positive cells in right and left femurs [3, 6]: increase in a dose-dependent manner
number of CD33-positive cells in right and left femurs [3, 6]: increase in a dose-dependent manner
number of CD38-positive cells in right and left femurs [3, 6]: increase in a dose-dependent manner
number of CD41-positive cells in right and left femurs [3, 6]: increase in a dose-dependent manner
number of CD45-positive cells in right and left femurs [3, 6]: increase in a dose-dependent manner
